According to article PMC8888459, “During FeS cluster biogenesis, ferredoxin and frataxin use overlapping binding sites on yeast cysteine desulfurase Nfs1” (The Journal of Biological Chemistry, 2022):

Target: T1, NIA–Isu1 complex with S. cerevisiae Isu1 (S. cerevisiae | E. coli (endogenous in …, UniProt P25374 37-497; Q6Q560 1-94; P0A6A8 1-78; Q03020 28-165)
T1 construct: Nfs1, mitochondrial cysteine desulfurase of S. cerevisiae; Isd11 of S. cerevisiae; acyl carrier protein of E. coli (ACPEc), endogenous in the expression host, 8.6 kD; Isu1, FeS cluster scaffold protein of S. cerevisiae (Isu1Sc); Formed in the reaction mixture from NIA and Isu1Sc; the number of Isu1 chains in the complex was not measured here; also called NIA–Isu1Sc; NIA and Isu1Sc mixture; …
Assay: pull-down; competition: Yah1^GST (2.5 μM) with NIA (5 μM), with or without Isu1Sc or Isu1Ct (7.5 μM), then Yfh1 WT or DE/KK added (12.5 μM or increasing concentrations); glutathione resin; densitometry, amount without Yfh1 set as 100%; buffer PD
Settings: both partners purified

T1 sequence (P25374 37-497, chain 1 of 4): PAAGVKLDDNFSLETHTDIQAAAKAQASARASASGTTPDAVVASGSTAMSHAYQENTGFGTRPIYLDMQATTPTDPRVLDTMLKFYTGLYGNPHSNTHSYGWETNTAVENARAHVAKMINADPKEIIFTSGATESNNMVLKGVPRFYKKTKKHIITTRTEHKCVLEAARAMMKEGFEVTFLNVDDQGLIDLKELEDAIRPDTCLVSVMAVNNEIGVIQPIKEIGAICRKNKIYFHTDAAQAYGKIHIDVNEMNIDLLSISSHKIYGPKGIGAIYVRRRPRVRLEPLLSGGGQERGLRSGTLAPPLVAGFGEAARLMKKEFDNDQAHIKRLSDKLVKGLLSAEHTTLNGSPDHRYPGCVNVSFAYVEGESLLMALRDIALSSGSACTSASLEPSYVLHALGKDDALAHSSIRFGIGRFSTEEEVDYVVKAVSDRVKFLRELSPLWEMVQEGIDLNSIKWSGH
T1 sequence (Q6Q560 whole entry, chain 2 of 4): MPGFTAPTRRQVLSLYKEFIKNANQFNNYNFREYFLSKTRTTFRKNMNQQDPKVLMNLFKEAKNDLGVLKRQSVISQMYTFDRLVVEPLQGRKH
T1 sequence (P0A6A8 whole entry, chain 3 of 4): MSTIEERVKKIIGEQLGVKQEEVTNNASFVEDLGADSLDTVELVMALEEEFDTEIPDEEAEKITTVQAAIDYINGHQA
T1 sequence (Q03020 28-165, chain 4 of 4): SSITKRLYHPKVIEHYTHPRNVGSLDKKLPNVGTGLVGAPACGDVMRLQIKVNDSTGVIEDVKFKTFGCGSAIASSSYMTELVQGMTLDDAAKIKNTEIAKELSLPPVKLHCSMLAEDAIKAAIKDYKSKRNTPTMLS

- percent reduction of Nfs1, Isd11 and Isu1 pulled down with Yah1^GST at a fivefold excess of Yfh1 (12.5 μM): 85%
B1: Yfh1 (frataxin) with a C-terminal polyhistidine tag (natural protein, S. cerevisiae, UniProt Q07540 52-174, looked up)
chain: VESSTDGQVVPQEVLNLPLEKYHEEADDYLDHLLDSLEELSEAHPDCIPDVELSHGVMTLEIPAFGTYVINKQPPNKQIWLASPLSGPNRFDLLNGEWVSLRNGTKLTDILTEEVEKAISKSQ
notes: Yfh1, mitochondrial frataxin of S. cerevisiae; also called Yfh1 (WT); source: E. coli expression systems
